Laboratory results: patent US20200268795A1, “INTERFERON-GAMMA ATTENUATES ANTI-TUMOR IMMUNE RESPONSE TO CHECKPOINT BLOCKADE” (The Regents of the University of California, priority 2017, published 2020)

B1: recombinant IFN-γ: Recombinant murine IFN-γ (Peprotech) (protein, UniProt P01580 23-155, looked up)
Interferon gamma: HGTVIESLESLNNYFNSSGIDVEEKSLFLDIWRNWQKDGDMKILQSQIISFYLRLFEVLKDNQAISNNISVIESHLITTFFSNSKAKKDAFMSIAKFEVNNPQVQRQAFNELIRVVHQLLPESSLRKRKRSRC

Tests used:
[1] = test system: peripheral blood mononuclear cells from a melanoma patient; test: Patient PBMC stimulated in vitro with IFN-γ, apoptosis of CD8+ T cells; assay type: cell-based, human; conditions: different concentrations of IFN-γ; FIG. 5D
Source text: It has been shown that T cell homeostasis can be achieved by down-modulation of antigen specific T cell receptor (TCR) signaling (A. M. Gallegos et al., Nature immunology 17, 379-386 (2016)). To investigate whether combination treatment eliminated different T cell clones depended on the strength of TCR binding to cognate cancer epitope, we gated on CD8 subsets and investigated Spas-1hi versus Spas-11o CD8+ T cell clones (FIG. 12C). […] Finally, peripheral blood mononuclear cells from a melanoma patient that received nivolumab immunotherapy were isolated and cultured in vitro with different concentrations of IFN-γ stimulation.
Splenocytes were harvested from TRAMP-C2 bearing C57BL/6j mice on day 50 and T cells were purified by magnetic beads according to the manufacturer's protocol (Miltenyi Biotec Cat 130-095-130). Cells were checked for over 90% purity. Purified T cells were suspend in DMEM (UCSF cell culture core) +10% fetal bovine serum (Lonza Cat 14-501F) +1% penicillin/streptomycin (UCSF cell culture core)+murine 20 IU IL-2 (Peprotech Cat 212-12), and seeded in 96 wells at 2×10^5 cells per well. Recombinant murine IFN-γ (Peprotech Cat 212-12) was added into the wells at indicated concentrations. Cells were cultured for 12-72 hours and analyzed by flow cytometry. […] Cells were harvested and analyzed by flow cytometry 72 hours after incubation.

[2] = test system: T cells purified from TRAMP-C2 tumor bearing mice; test: In vitro T cell cultures stimulated with recombinant IFN-γ, active Caspase-3; assay type: cell-based; conditions: 72 hours after IFN-γ stimulation; FIG. 5B
Method: We hypothesized that the loss of Spas-1 specific CD8+ T cells may be related to increased IFN-γ signaling. […] To further evaluate the effects of IFN-γ on antigen specific T cells, T cells were purified from spleens of tumor-bearing mice and stimulated with different concentrations of recombinant IFN-γ in vitro (FIG. 5A). 72 hours after the stimulation, the level of active Caspase-3 expression was examined among T cells subsets, including naïvee T cells (CD45+CD8+CD44-CD62L+), antigen specific T cells (CD45+CD8+Spas-1), and effector T cells (CD45+CD8+CD44+CD62L-). Activated effector T cells and antigen specific T cells were more susceptible to IFN-γ induced active Caspase-3 expression compared to naïvee T cells (FIG. 5B; 2297.33±305.84 versus 2281.67±305.89 versus 723±17.54; P<0.001).
Splenocytes were harvested from TRAMP-C2 bearing C57BL/6j mice on day 50 and T cells were purified by magnetic beads according to the manufacturer's protocol (Miltenyi Biotec Cat 130-095-130). Cells were checked for over 90% purity. Purified T cells were suspend in DMEM (UCSF cell culture core) +10% fetal bovine serum (Lonza Cat 14-501F) +1% penicillin/streptomycin (UCSF cell culture core)+murine 20 IU IL-2 (Peprotech Cat 212-12), and seeded in 96 wells at 2×10^5 cells per well. Recombinant murine IFN-γ (Peprotech Cat 212-12) was added into the wells at indicated concentrations. Cells were cultured for 12-72 hours and analyzed by flow cytometry. For the patient sample, peripheral blood mononuclear cells (PBMCs) were isolated by Ficoll (Sigma Cat F4375) and PBMCs were seeded in 96 wells at 2×10^5 cells per well supplemented with 20 IU human IL-2 (Peprotech Cat 200-02). Recombinant human IFN-γ (Peprotech Cat 212-12) was added to the wells. Cells were harvested and analyzed by flow cytometry 72 hours after incubation.
The flow cytometry protocols were previously described (Sckisel et al., 2015). […] Flow cytometry was performed on Fortessa X20 Dual, and data analyzed by FlowJo software (TreeStar). […]

| Molecule | apoptosis (Annexin V) in CD8+ T cells [1] | active Caspase-3 expression, antigen specific T cells (CD45+CD8+Spas-1) [2] | active Caspase-3 expression, effector T cells (CD45+CD8+CD44+CD62L-) [2] | active Caspase-3 expression, naïve T cells (CD45+CD8+CD44-CD62L+) [2] |
| --- | --- | --- | --- | --- |
| IFN-γ: Recombinant human IFN-γ (Peprotech) added to patient PBMCs | gradual increase in apoptosis |  |  |  |
| B1 |  | 2281.67±305.89 | 2297.33±305.84 | 723±17.54 |
